Here are results for one molecule from paper doi:10.1101/2020.04.09.012385.

The data set has as its target mouse DLX2 (Mus musculus, UniProt P40764 1-332). Put plainly: EMSA. For orientation: Mobility shift assays separate free from complexed probe on a gel.

Chain of mouse DLX2 (P40764 whole entry): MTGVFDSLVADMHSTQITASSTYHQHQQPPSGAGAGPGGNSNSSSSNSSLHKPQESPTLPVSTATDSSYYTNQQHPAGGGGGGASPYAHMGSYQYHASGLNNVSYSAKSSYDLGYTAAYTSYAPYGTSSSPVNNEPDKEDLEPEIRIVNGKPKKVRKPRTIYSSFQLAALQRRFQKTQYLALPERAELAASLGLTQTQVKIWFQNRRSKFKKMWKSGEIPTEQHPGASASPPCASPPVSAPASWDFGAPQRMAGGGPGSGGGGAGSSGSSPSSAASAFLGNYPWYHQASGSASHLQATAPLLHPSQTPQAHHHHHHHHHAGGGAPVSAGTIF

B1: mR6ii (dsDNA)
DNA 1: GATCCCGCCCCAATAGGTACTAATGACTGCCTGGGTGTCTACACTCACCG
DNA 2: CGGTGAGTGTAGACACCCAGGCAGTCATTAGTACCTATTGGGGCGGGATC
Turning to B1, the binding result is reported as “no binding”.
